Broadly, the Km is the concentration of substrate that gives half-maximal velocity. In general, kcat refers to the number of substrate molecules converted per active site and unit of time at saturation. For orientation: kcat/Km means the turnover number divided by the Michaelis constant.

The text below walks through data of patent publication EP1032654B1, “THERMOSTABLE GLUCOAMYLASE” (Novozymes A/S, priority 1997, dated 1999).

Experiment in all cases: Kinetic parameters for hydrolysis of maltose and isomaltose
Details in all cases: other: At 45°C using 0.05 M NaOAc, pH 4.5

Substrate in data set [1]: OC[C@H]1O[C@H](O[C@H]2[C@H](O)[C@@H](O)[C@H](O)O[C@@H]2CO)[C@H](O)[C@@H](O)[C@@H]1O
Type of data set: biochemical, Aspergillus niger. On the procedure:
(§1) 50 microL enzyme diluted in sodium acetate is added,and the activity was determined using the AGU standard method described above. The kinetic parameters: Kcat and Km are measured at 45°C by adding 50 microL enzyme diluted in sodium acetate to preheated 750 microL substrate. Aliquots of 100 microL are removed after 0, 3, 6, 9 and 12 minutes and transferred to 100 microL 0.4M Sodium hydroxide to stop the reaction. A blank is included.
(§2) 20 microL is transferred to a Micro titre plates and 200 microL GOD-Perid solution is added. Absorbance is measured at 650 nm after 30 minutes incubation at room temperature. Glucose is used as standard, and the specific activity is calculated as kcat (sec. ^-1)
(§3) Kinetic Parameters for Hydrolysis of Maltose and Isomaltose by Aspergillus niger AMG and the recombinant Talaromyces emersonii AMG expressed in A. niger.

Substrate in data set [2]: OC[C@H]1O[C@H](OC[C@H]2OC(O)[C@H](O)[C@@H](O)[C@@H]2O)[C@H](O)[C@@H](O)[C@@H]1O
It counts as biochemical, Aspergillus niger. The method, then: as §1, §2, §3

Substrate in data set [3]: OC[C@H]1O[C@H](O[C@H]2[C@H](O)[C@@H](O)[C@H](O)O[C@@H]2CO)[C@H](O)[C@@H](O)[C@@H]1O
It counts as biochemical, Talaromyces emersonii. The method, then: as §1, §2, §3

Substrate in data set [4]: OC[C@H]1O[C@H](OC[C@H]2OC(O)[C@H](O)[C@@H](O)[C@@H]2O)[C@H](O)[C@@H](O)[C@@H]1O
It counts as biochemical, Talaromyces emersonii. On the procedure: as §1, §2, §3

B1: Aspergillus niger AMG (glucoamylase G1), SEQ ID NO: 9 (Aspergillus niger) (protein)
chain: ATLDSWLSNEATVARTAILNNIGADGAWVSGADSGIVVASPSTDNPDYFYTWTRDSGLVLKTLVDLFRNGDTSLLSTIENYISAQAIVQGISNPSGDLSSGAGLGEPKFNVDETAYTGSWGRPQRDGPALRATAMIGFGQWLLDNGYTSTATDIVWPLVRNDLSYVAQYWNQTGYDLWEEVNGSSFFTIAVQHRALVEGSAFATAVGSSCSWCDSQAPEILCYLQSFWTGSFILANFDSSRSGKDANTLLGSIHTFDPEAACDDSTFQPCSPRALANHKEVVDSFRSIYTLNDGLSDSEAVAVGRYPEDTYYNGNPWFLCTLAAAEQLYDALYQWDKQGSLEVTDVSLDFFKALYSDAATGTYSSSSSTYSSIVDAVKTFADGFVSIVETHAASNGSMSEQYDKSDGEQLSARDLTWSYAALLTANNRRNSVVPASWGETSASSVPGTCAATSAIGTYSSVTVTSWPSIVATGGTTTTATPTGSGSVTSTSKTTATASKTSTSTSSTSCTTPTAVAVTFDLTATTTYGENIYLVGSISQLGDWETSDGIALSADKYTSSDPLWYVTVTLPAGESFEYKFIRIESDDSVEWESDPNREYTVPQACGTSTATVTDTWR
As for B1, in data set [1], the Km was determined as 1.2 mM, the kcat came to 10.7 s⁻¹ and the kcat/Km was determined as 8800 M⁻¹ s⁻¹. In data set [2], the Michaelis constant (Km) turned out to be 19.8 mM, the kcat was determined as 0.41 s⁻¹ and the kcat/Km came out at 21 M⁻¹ s⁻¹.

B2: recombinant Talaromyces emersonii AMG (glucoamylase) expressed in A. niger, SEQ ID NO: 7 (Rasamsonia emersonii) (protein)
chain: ATGSLDSFLATETPIALQGVLNNIGPNGADVAGASAGIVVASPSRSDPNYFYSWTRDAALTAKYLVDAFIAGNKDLEQTIQQYISAQAKVQTISNPSGDLSTGGLGEPKFNVNETAFTGPWGRPQRDGPALRATALIAYANYLIDNGEASTADEIIWPIVQNDLSYITQYWNSSTFDLWEEVEGSSFFTTAVQHRALVEGNALATRLNHTCSNCVSQAPQVLCFLQSYWTGSYVLANFGGSGRSGKDVNSILGSIHTFDPAGGCDDSTFQPCSARALANHKVVTDSFRSIYAINSGIAEGSAVAVGRYPEDVYQGGNPWYLATAAAAEQLYDAIYQWKKIGSISITDVSLPFFQDIYPSAAVGTYNSGSTTFNDIISAVQTYGDGYLSIVEKYTPSDGSLTEQFSRTDGTPLSASALTWSYASLLTASARRQSVVPASWGESSASSVPAVCSATSATGPYSTATNTVWPSSGSGSSTTTSSAPCTTPTSVAVTFDEIVSTSYGETIYLAGSIPELGNWSTASAIPLRADAYTNSNPLWYVTVNLPPGTSFEYKFFKNQTDGTIVWEDDPNRSYTVPAYCGQTTAILDDSWQ
In the case of B2, in data set [3], the Km came to 3.8 mM, the kcat was 30.6 s⁻¹ and the kcat/Km stood at 8100 M⁻¹ s⁻¹. In addition, in data set [4], the Km amounted to 53.6 mM, the kcat was found to be 2.70 s⁻¹ and the kcat/Km was determined as 50 M⁻¹ s⁻¹.
